For test [1], the target named is T1, rHuman Erythropoietin R/Fc Chimera, CF (R&D Systems Cat#963-ER) (human, UniProt P19235 25-250).
T1 construct: Bought recombinant protein; also called EPO R; EPO R/Fc; Fc part of the bought chimera not given
T1 sequence (looked up): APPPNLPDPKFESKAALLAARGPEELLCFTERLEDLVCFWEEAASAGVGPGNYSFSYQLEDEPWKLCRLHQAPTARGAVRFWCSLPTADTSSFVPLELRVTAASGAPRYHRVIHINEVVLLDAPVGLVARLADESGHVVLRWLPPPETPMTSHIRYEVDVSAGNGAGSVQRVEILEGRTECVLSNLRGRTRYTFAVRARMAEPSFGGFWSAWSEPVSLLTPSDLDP
Description: ECL multispot (MSD) assay, antigen spotted on plate, Fab at 0.01 µM.

The target of test [2] is T2, Recombinant Human DLL4 (R&D Systems Cat#1506-D4/CF) (human, UniProt Q9NR61 27-524).
T2 construct: Bought recombinant protein; also called delta-like protein 4; rHuman DLL4
The test is described as above.

Test [3] deals with T3, rHuman ErbB2/Fc Chimera, CF (R&D Systems Cat#1129-ER) (human, UniProt P04626 23-652).
T3 construct: Bought recombinant protein; also called human epidermal growth factor 2 receptor; Fc part of the bought chimera not given
The test is described as above.

Test [4] concerns the target T4, rHuman EGF R/Fc Chimera, CF (R&D Systems Cat#344-ER) (human, UniProt P00533 25-645).
T4 construct: Bought recombinant protein; also called epidermal growth factor receptor; Fc part of the bought chimera not given
The description is as above.

Test [5] addresses T5, rHuman HGF R/c-MET/Fc Chimera, CF (R&D Systems Cat#358-MT/CF) (human, UniProt P08581 25-932).
T5 construct: Bought recombinant protein; also called HGF R/Fc; hepatocyte growth factor receptor; Fc part of the bought chimera not given
The description is as above.

The target in test [6] is T6, rHuman Notch-1/Fc Chimera, CF (R&D Systems Cat#3647-TK) (human, UniProt P46531 19-526).
T6 construct: Bought recombinant protein; Fc part of the bought chimera not given
Described as above.

Test [7] deals with T7, rHuman CD44/Fc Chimera, CF (R&D Systems Cat#3660-CD) (human, UniProt P16070 21-220).
T7 construct: Bought recombinant protein; Fc part of the bought chimera not given
The description is as above.

Test [8] has as its target T8, rHuman IGF-1 sR, CF (R&D Systems Cat#391-GR) (human, UniProt P08069 31-932).
T8 construct: Bought recombinant soluble receptor; also called insulin-like growth factor-1 soluble receptor
Described as above.

Test [9] has as its target T9, rHuman P-Cadherin/Fc Chimera, CF (R&D Systems Cat#861-PC) (human, UniProt P22223 108-654).
T9 construct: Bought recombinant protein; Fc part of the bought chimera not given
The description is as above.

In test [10] the target is T10, Recombinant Human DLL4 (delta-like protein 4) (human, UniProt Q9NR61 27-524).
T10 construct: Bought recombinant protein (R&D Systems Cat#1506-D4/CF); also called rHuman DLL4; Delta-like 4
Description: ECL Multispot (MSD) binding assay, DLL4 spotted on plate, 10 nM Fab.

Test [11] concerns the target T11, rHuman ErbB2/Fc Chimera, CF (R&D Systems Cat#1129-ER) (human, UniProt P04626 23-652).
T11 construct: Bought recombinant protein; also called human epidermal growth factor 2 receptor; Fc part of the bought chimera not given
Description: ECL (MSD) multispot binding assay, antigen spotted on plate, 20 nM Fab.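 Further: purified Fab incubated 1 h at 20 °C on antigen-spotted plate, bound Fab revealed with TAG detection antibody, ECL read, antigen signal divided by same-well blank, ratio ≥4 counted as hit.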

The target of test [12] is T12, rHuman EGF R/Fc Chimera, CF (R&D Systems Cat#344-ER) (human, UniProt P00533 25-645).
T12 construct: Bought recombinant protein; also called epidermal growth factor receptor; Fc part of the bought chimera not given
Described as above.

Test [13] addresses T13, rHuman HGF R/c-MET/Fc Chimera, CF (R&D Systems Cat#358-MT/CF) (human, UniProt P08581 25-932).
T13 construct: Bought recombinant protein; also called HGF R/Fc; hepatocyte growth factor receptor; Fc part of the bought chimera not given
The description is as above.

In test [14] the target is T14, rHuman Notch-1/Fc Chimera, CF (R&D Systems Cat#3647-TK) (human, UniProt P46531 19-526).
T14 construct: Bought recombinant protein; Fc part of the bought chimera not given
The description is as above.

In test [15] the target is T15, rHuman CD44/Fc Chimera, CF (R&D Systems Cat#3660-CD) (human, UniProt P16070 21-220).
T15 construct: Bought recombinant protein; Fc part of the bought chimera not given
Described as above.

Test [16] addresses T16, rHuman IGF-1 sR, (IGF-1 sR), CF (R&D Systems Cat#391-GR) (human, UniProt P08069 31-932).
T16 construct: Bought recombinant soluble receptor; also called insulin-like growth factor-1 soluble receptor
Described as above.

Test [17] deals with T17, rHuman P-Cadherin/Fc Chimera, CF (R&D Systems Cat#861-PC) (human, UniProt P22223 108-654).
T17 construct: Bought recombinant protein; Fc part of the bought chimera not given
The test is described as above.

For test [18], the target named is T18, rHuman Erythropoietin R/Fc Chimera, CF (R&D Systems Cat#963-ER) (human, UniProt P19235 25-250).
T18 construct: Bought recombinant protein; also called EPO R; EPO R/Fc; Fc part of the bought chimera not given
T18 sequence (looked up): T1 sequence (looked up)
The description is as above.

Test [19] addresses T19, Recombinant Human DLL4 (R&D Systems Cat#1506-D4/CF) (human, UniProt Q9NR61 27-524).
T19 construct: Bought recombinant protein; also called delta-like protein 4; rHuman DLL4
The description is as above.

The target in test [20] is T20, rHuman CD44/Fc Chimera, CF (R&D Systems Cat#3660-CD) (human, UniProt P16070 21-220).
T20 construct: Bought recombinant protein; Fc part of the bought chimera not given
Description: ECL multispot (MSD) assay, antigen spotted on plate, 20 nM Fab.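 Further: purified Fab bound to plate-spotted antigen for 1 h at 20 °C, labelled detection antibody added, ratio of antigen ECL signal to same-well blank, ratio ≥4 counted as binder.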

Test [21] has as its target T21, rHuman IGF-1 sR, CF (R&D Systems Cat#391-GR) (human, UniProt P08069 31-932).
T21 construct: Bought soluble receptor; also called insulin-like growth factor-1 soluble receptor
Described as above.

Test [22] deals with T22, rHuman P-Cadherin/Fc Chimera, CF (R&D Systems Cat#861-PC) (human, UniProt P22223 108-654).
T22 construct: Bought recombinant protein; Fc part of the bought chimera not given
The test is described as above.

Test [23] addresses T23, rHuman Erythropoietin R/Fc Chimera, CF (R&D Systems Cat#963-ER) (human, UniProt P19235 25-250).
T23 construct: Bought recombinant protein; also called EPO R; EPO R/Fc; Fc part of the bought chimera not given
T23 sequence (looked up): T1 sequence (looked up)
The description is as above.

In test [24] the target is T24, Recombinant Human DLL4 (R&D Systems Cat#1506-D4/CF) (human, UniProt Q9NR61 27-524).
T24 construct: Bought recombinant protein; also called delta-like protein 4; rHuman DLL4
Described as above.

For test [25], the target named is T25, rHuman ErbB2/Fc Chimera, CF (R&D Systems Cat#1129-ER) (human, UniProt P04626 23-652).
T25 construct: Bought recombinant protein; also called human epidermal growth factor 2 receptor; Fc part of the bought chimera not given
The test is described as above.

Test [26] addresses T26, rHuman EGF R/Fc Chimera, CF (R&D Systems Cat#344-ER) (human, UniProt P00533 25-645).
T26 construct: Bought recombinant protein; also called epidermal growth factor receptor; Fc part of the bought chimera not given
Described as above.

Test [27] concerns the target T27, rHuman Notch-1/Fc Chimera, CF (R&D Systems Cat#3647-TK) (human, UniProt P46531 19-526).
T27 construct: Bought recombinant protein; Fc part of the bought chimera not given
Described as above.

Changes are numbered by the printed parent chain. Names and notes keep the numbering of the source.

B1: Fab VH1-46_IGHD6-6*01_IGHJ1*01 & L6_IGKJ1*01 (Fab, V domains shown)
VH: QVQLVQSGAEVKKPGASVKVSCKASGYTFTSYYMHWVRQAPGQGLEWMGIINPSGGSTSYAQKFQGRVTMTRDTSTSTVYMELSSLRSEDTAVYYCAREEYSSSSAEYFQHWGQGTLVTVSS
VL: not shown
notes: Tested as a Fab expressed in E. coli; The heavy chain variable region was cloned into Plasmid A (CH1, His6 and Flag tags) and the kappa light chain variable region into Plasmid C (kappa CL); also called Parent; parental
Consider B1, for which the ECL signal/noise ratio in test [1] was 1; in test [2], 4.9; in [3], 1; in [4], 0.9; in [5] it was 0.9; in test [6], 0.5. Moreover, the ECL signal/noise ratio is 1.1 in test [7], 0.8 in test [8] and 1 in test [9].

B2: Fab VH1-46_IGHD6-6*01_IGHJ1*01 S102A/S103P/S104F G55W & L6_IGKJ1*01 (Fab, V domains shown)
VH: B1 VH with G55W, S102A, S103P, S104F
VL: not shown
notes: Tested as Fab; also called APF G55W
As for B2, in test [10], the Signal/Noise turned out to be 8.

B3: Fab VH1-46_IGHD6-6*01_IGHJ1*01 S102A/S103P/S104F A106E & L6_IGKJ1*01 (Fab, V domains shown)
VH: B1 VH with S102A, S103P, S104F, A106E
VL: not shown
notes: Tested as Fab; also called APF A106E
On to B3, for which the Signal/Noise in [10] stood at 4.3.

B4: Fab VH3-23_IGHD2-21*01>3_IGHJ6*01 H100E/S108P/Y113G/Y110G & V2-13_IGLJ2*01 (Fab, V domains shown)
VH: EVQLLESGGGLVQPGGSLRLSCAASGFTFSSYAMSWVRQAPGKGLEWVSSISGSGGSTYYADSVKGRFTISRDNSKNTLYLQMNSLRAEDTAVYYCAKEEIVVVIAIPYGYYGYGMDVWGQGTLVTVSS
VL: SSELTQDPAVSVALGQTVRITCQGDSLRSYYASWYQQKPGQAPVLVIYGKNNRPSGIPDRFSGSSSGNTASLTITGAQAEDEADYYCNSRDSSGNHLVVFGGGTKLTVL
notes: Fab made in E. coli: VH joined to CH1 (with His and Flag tags, plasmid A) and VL to lambda CL (plasmid E); also called EPG Y110G
For B4, the “ECL signal/blank ratio” value in test [11] was found to be 1.3; in test [12], 1.5; in [13], 1; in test [14], 1.6; in test [15], 1; in test [16], 1.4. The results for the “ECL signal/blank ratio” value in test [17], in test [18] and in test [19] were 0.8, 2 and 1.3, respectively.

B5: Fab VH3-23_IGHD2-21*01>3_IGHJ6*01 H100E/S108P/Y113G T58A & V2-13_IGLJ2*01 (Fab, V domains shown)
VH: EVQLLESGGGLVQPGGSLRLSCAASGFTFSSYAMSWVRQAPGKGLEWVSSISGSGGSAYYADSVKGRFTISRDNSKNTLYLQMNSLRAEDTAVYYCAKEEIVVVIAIPYYYYGYGMDVWGQGTLVTVSS
VL: B4 VL
notes: Tested as a Fab made in E. coli; also called EPG T58A
As to B5, the “ECL signal/blank ratio (read-out not given)” value in test [20] was 1.5; in test [21], 1.2; in test [22] it was 36.9; in [23] it was 158; in test [24], 2.3; in test [25] it was 15.9. Also, in test [26], the “ECL signal/blank ratio (read-out not given)” value stood at 9.6.

B6: Fab VH3-23_IGHD2-21*01>3_IGHJ6*01 H100E/S108P/Y113G/Y111P & V2-13_IGLJ2*01 (Fab, V domains shown)
VH: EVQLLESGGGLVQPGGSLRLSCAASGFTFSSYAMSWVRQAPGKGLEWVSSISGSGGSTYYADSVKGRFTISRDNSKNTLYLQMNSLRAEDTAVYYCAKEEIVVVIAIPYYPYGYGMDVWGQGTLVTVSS
VL: B4 VL
notes: Fab made in E. coli: VH joined to CH1 (with His and Flag tags, plasmid A) and VL to lambda CL (plasmid E); also called EPG Y111P
For the molecule B6, the “ECL signal/blank ratio” value in test [11] was determined as 1.6; in test [12], 1.5; in test [13] it was 1.7; in [14], 1.6; in test [15], 1.3; in test [16], 1.2. The “ECL signal/blank ratio” value in test [17] was 1.3; in [18], 1.9; in [19], 1.4.

B7: Fab VH3-23_IGHD2-21*01>3_IGHJ6*01 H100E/S108P/Y113G A61T & V2-13_IGLJ2*01 (Fab, V domains shown)
VH: B5 VH with A58T, A61T
VL: B4 VL
notes: Tested as a Fab made in E. coli; also called EPG A61T
On to B7, for which the “ECL signal/blank ratio (read-out not given)” value amounted to 2.9 in [27]; 2 in test [20]; 1.6 in [21]; 20.9 in [22]; 2.6 in [24]; 11.2 in [25]. For the same molecule, the “ECL signal/blank ratio (read-out not given)” value in test [26] worked out at 7.1.

B8: Fab VH3-23_IGHD2-21*01>3_IGHJ6*01 H100E/S108P/Y113G Y60A & V2-13_IGLJ2*01 (Fab, V domains shown)
VH: B5 VH with A58T, Y60A
VL: B4 VL
notes: Tested as a Fab made in E. coli; also called EPG Y60A
For the molecule B8, the “ECL signal/blank ratio (read-out not given)” value in test [27] is 2.6; in test [20], 1.5; in test [21] it was 1.2; in test [22], 25.3; in [24], 2.3; in [25], 11.5. Moreover, the “ECL signal/blank ratio (read-out not given)” value in [26] came out at 6.2.

B9: Fab VH3-23_IGHD2-21*01>3_IGHJ6*01 H100E/S108P/Y113G D62A & V2-13_IGLJ2*01 (Fab, V domains shown)
VH: B5 VH with A58T, D62A
VL: B4 VL
notes: Tested as a Fab made in E. coli; also called EPG D62A
With B9, the “ECL signal/blank ratio (read-out not given)” value in test [20] is 2; in test [21], 1.4; in test [22], 45.8; in [23] it was 244; in test [24], 2.4; in test [25], 21.7. Moreover, the “ECL signal/blank ratio (read-out not given)” value in test [26] amounted to 11.6.

Source of the values: US20120316071A1 (published 2012).
